This is an account of results in paper PMC10333884, “Large‐scale phosphomimetic screening identifies phospho‐modulated motif‐based protein interactions” (Molecular Systems Biology, 2023).

Where “and” joins values, the source holds several entries; their conditions need not be identical. Equal values may be shown once.

One test concerns the target MAP1LC3B (human) (UniProt Q9GZQ8). The experiment in a line: fluorescence polarisation; displacement of a FITC-labelled probe peptide (5 nM in the measurement) from the protein domain (1-2 fold over the probe's KD) by a dilution series of unlabelled peptide; room temperature; 50 mM sodium phosphate pH 7.4; KD calculated from the displacement curve; for KPNA4 ARM one probe for each pocket.

Another test has as its target MAP1LC3A (human). The description is as above.
Test [1] deals with GABARAPL2 (human) (UniProt P60520). The experiment in a line: fluorescence polarisation.
Chain of GABARAPL2 (human) (P60520 whole entry, the tested form may be a part): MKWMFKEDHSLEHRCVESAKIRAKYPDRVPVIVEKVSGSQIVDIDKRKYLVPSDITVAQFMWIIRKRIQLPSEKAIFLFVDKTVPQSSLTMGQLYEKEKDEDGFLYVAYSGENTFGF
Test [2] addresses KPNA4 ARM ARM domain (UniProt O00629). The experiment in a line: FP displacement, major-pocket FITC probe. The note with it: reference: unphosphorylated peptide.
Test [3] addresses Clathrin N-terminal domain (NTD) (human) (UniProt Q00610). The experiment in a line: fluorescence polarisation; displacement of a FITC-labelled probe peptide (5 nM in the measurement) from the protein domain (1-2 fold over the probe's KD) by a dilution series of unlabelled peptide; room temperature; 50 mM sodium phosphate pH 7.4; KD calculated from the displacement curve; for KPNA4 ARM one probe for each pocket.

The target is the same in test [4]. The experiment in a line: ITC; iTC200; peptide titrated against the protein domain in approximately 10-fold excess, 16 injections; 50 mM sodium phosphate buffer pH 7.4, 1 mM DTT; constants of single runs and their average.
The target is the same in test [5]. The experiment in a line: fluorescence polarisation.
Test [6] has the same target. The experiment in a line: ITC; peptide titrated against protein domain in about 10-fold excess, 16 injections; 50 mM sodium phosphate pH 7.4, 1 mM DTT.
The target is the same in test [7]. The experiment in a line: fluorescence polarisation; displacement of a FITC-labelled probe peptide (5 nM in the measurement) from the protein domain (1-2 fold over the probe's KD) by a dilution series of unlabelled peptide; room temperature; 50 mM sodium phosphate pH 7.4; KD calculated from the displacement curve; for KPNA4 ARM one probe for each pocket. The source holds these as a separate data set.

The target in test [8] is KPNA4 ARM ARM domain (UniProt O00629). The experiment in a line: FP displacement, minor-pocket FITC probe. The following applies: reference: unphosphorylated peptide.
For another test, the target named is GGA1 VHS domain (human) (UniProt Q9UJY5). The experiment in a line: ITC; iTC200; peptide titrated against the protein domain in approximately 10-fold excess, 16 injections; 50 mM sodium phosphate buffer pH 7.4, 1 mM DTT; constants of single runs and their average.
Chain of GGA1 VHS domain (human) (Q9UJY5 17-147): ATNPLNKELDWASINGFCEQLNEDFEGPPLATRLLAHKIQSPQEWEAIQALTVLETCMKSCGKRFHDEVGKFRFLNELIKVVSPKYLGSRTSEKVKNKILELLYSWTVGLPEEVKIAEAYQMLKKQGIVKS
The target in a further test is MAP1LC3B ATG8 (human). The test is described as above.
For test [9], the target named is GABARAPL2 (human) (UniProt P60520). The experiment in a line: fluorescence polarisation; displacement of a FITC-labelled probe peptide (5 nM in the measurement) from the protein domain (1-2 fold over the probe's KD) by a dilution series of unlabelled peptide; room temperature; 50 mM sodium phosphate pH 7.4; KD calculated from the displacement curve; for KPNA4 ARM one probe for each pocket.

For a further test, the target named is 14‐3‐3 theta (UniProt P27348). The experiment in a line: FP displacement of FITC probe peptide. The following applies: reference: unphosphorylated peptide; sites S375.

Chain of Clathrin N-terminal domain (NTD) (human) (Q00610 1-364): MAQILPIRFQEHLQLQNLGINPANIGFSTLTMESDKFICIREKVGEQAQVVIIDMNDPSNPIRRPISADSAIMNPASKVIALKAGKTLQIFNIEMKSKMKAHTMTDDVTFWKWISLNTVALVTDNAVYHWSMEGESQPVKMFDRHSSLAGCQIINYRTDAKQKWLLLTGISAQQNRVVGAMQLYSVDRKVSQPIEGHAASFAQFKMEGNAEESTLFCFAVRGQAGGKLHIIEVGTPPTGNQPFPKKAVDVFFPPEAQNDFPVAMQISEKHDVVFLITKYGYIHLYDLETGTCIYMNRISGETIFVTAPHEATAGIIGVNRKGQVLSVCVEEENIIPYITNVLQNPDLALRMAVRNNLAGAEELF

Turning to “ATG4C_(444–458), phosphomimetic (E) (from UniProt Q96DT6 444-458) (peptide)”, the Kd in the test with MAP1LC3B (human) is 4.6 µM; with MAP1LC3A (human), 3.1 µM; with GABARAPL2 (human) [1] it was 1.8 µM. As for “ATG4C_(444–458), wild‐type (from UniProt Q96DT6 444-458) (peptide)”, the Kd with MAP1LC3B (human) was 7.1 µM; with MAP1LC3A (human) it was 5.2 µM; in the test with GABARAPL2 (human) [1] it was 0.8 µM. With “CDC25A 114-125 (from UniProt P30304) pS116 peptide”, the KD entry in the test with KPNA4 ARM ARM domain [2] (sites S116) was “stronger; reference 8.8 ± 0.2”.

Turning to “GTSE1_(692–707) peptide, unphosphorylated”, the Kd in test [3] is 100 µM. On to “HURP 832-846 peptide, phosphomimetic (S839 to glutamate) (from UniProt Q15398 832-846)”, for which the stoichiometry N in test [4] was 0.552 and 0.557 and 0.458. For “HURP_(832–846), phosphomimetic (E) (from UniProt Q15398 832-846) (peptide)”, the Kd in [5] turned out to be 23 µM. As for “HURP_(832–846), wild‐type (from UniProt Q15398 832-846) (peptide)”, the values for the Kd in [3], in [6] and in [7] were 134 µM, 250 µM and 150 µM, respectively. Regarding “RANBP3 114-129 (from UniProt Q9H6Z4) pS125 peptide (p+6)”, the KD entry with KPNA4 ARM ARM domain [2] (sites S125) is recorded as “same; reference 0.15 ± 0.01”; with KPNA4 ARM ARM domain [8] (sites S125) it was “stronger; reference 68 ± 4”. Take “RANBP3 114-129 (from UniProt Q9H6Z4) pT124 peptide (p+5)”: the KD entry in the test with KPNA4 ARM ARM domain [2] (sites T124) is listed as “weaker; reference 0.15 ± 0.01”. As for “RNF11 6-21 peptide, phosphomimetic (from UniProt Q9Y3C5 6-21)”, the stoichiometry N with GGA1 VHS domain (human) was 0.97 and 0.905. The same measure, in the same setting: next, “RNF11 6-21 peptide, phosphorylated (from UniProt Q9Y3C5 6-21)”: 0.722 and 0.731; “RNF11 6-21 peptide, wild-type (from UniProt Q9Y3C5 6-21)”: 0.8.

Regarding “SQSTM1 258-272 (from UniProt Q13501) phosphorylated peptide”, the results for the KD result in the test with KPNA4 ARM ARM domain [2] (sites S266) and with KPNA4 ARM ARM domain [8] (sites S266) were “weaker; reference 0.24 ± 0.04” and “weaker; reference 14.0 ± 0.7”, respectively.

For the substance “TBK1 164-179 peptide, phosphorylated (from UniProt Q9UHD2 164-179)”, the stoichiometry N with MAP1LC3B ATG8 (human) is 1.09 and 1.17 and 0.932.

For the substance “TBK1_(164–179), phosphomimetic (E) (from UniProt Q9UHD2 164-179) (peptide)”, the Kd with MAP1LC3B (human) was 2.1 µM; with GABARAPL2 (human) [9] it was 12.4 µM. Consider “TBK1_(164–179), phosphorylated (pS) (from UniProt Q9UHD2 164-179) (peptide)”, for which the Kd with GABARAPL2 (human) [9] was 2.8 µM. For the substance “TBK1_(164–179), wild‐type (from UniProt Q9UHD2 164-179) (peptide)”, the Kd is 10.5 µM with MAP1LC3B (human) and 19 µM with GABARAPL2 (human) [9].

“TOM1 366-382 (from UniProt O60784) pS375 peptide”: in the test with 14‐3‐3 theta, the “binding against the reference” value is “gained”. “TPD52L2_(91–106), phosphomimetic (E) (from UniProt O43399 91-106) (peptide)”: the dissociation constant (Kd) in the test with MAP1LC3B (human) was 225 µM; with MAP1LC3A (human), 78 µM. As to “pS839 HURP_(826–846) peptide (from UniProt Q15398 826-846)”, the Kd in test [3] is under 3 µM.

With “pS839 HURP_(832–846) (from UniProt Q15398 832-846) (peptide)”, the figures for the Kd in [3] and in test [6] were under 3 µM and 5 µM, respectively.
